Experimental data taken from US20240209109A1 (CONCEPT TO MEDICINE BIOTECH, published 2024).
Substitutions are numbered along the chain they refer to.

Key:
human CD40 on cells [1] = biological target: T1, human CD40 on cells (human, UniProt P25942 21-277); assay: FACS on human dendritic cells, MFI
T1 construct: whole, on cells; also called cell surface CD40; Jurkat-CD40

human CD40 on cells [2] = biological target: T1, human CD40 on cells; assay: FACS on Jurkat cells overexpressing human CD40, PE anti-human IgG, MFI
Method: To evaluate their binding affinity to cell surface CD40, chimeric anti-CD40 monospecific antibodies were tested in Jurkat cell lines that overexpressed CD40 by FACS. A total number of 1×10⁵ Jurkat-CD40 cells in each well were incubated with 10-fold serially diluted antibodies starting from 100 nM for 30 minutes at 4° C. in FACS buffer. After wash by FACS buffer, PE conjugated-anti-human IgG antibody was added to each well and incubated at 4° C. for 30 minutes. After wash, MFI of PE was evaluated by MACSQuant Analyzer 16.

T1 sequence (P25942 21-277): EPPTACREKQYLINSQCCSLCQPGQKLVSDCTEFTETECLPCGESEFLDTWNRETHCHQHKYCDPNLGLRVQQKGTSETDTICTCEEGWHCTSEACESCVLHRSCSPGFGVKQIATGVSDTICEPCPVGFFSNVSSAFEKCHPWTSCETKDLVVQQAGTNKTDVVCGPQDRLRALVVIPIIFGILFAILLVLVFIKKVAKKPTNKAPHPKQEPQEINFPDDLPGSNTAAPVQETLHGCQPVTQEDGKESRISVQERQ

B1: b16 (42p155z2)-LALA humanized anti-5T4/CD40 bispecific antibody (bispecific antibody, human IgG1, kappa, L234A L235A)
heavy 1: QVQLVQSGAEVKKPGASVKVSCKASGYAFSSSWMNWVRQAPGQGLEWMGRIYREDGHTNYNGKFKGRVTMTADKSITTAYMELSRLRSDDTAVYYCANGGAMDYWGQGTLVTVSSASTKGPSVFPLAPSSKSTSGGTAALGCLVKDYFPEPVTVSWNSGALTSGVHTFPAVLQSSGLYSLSSVVTVPSSSLGTQTYICNVNHKPSNTKVDKKVEPKSCDKTHTCPPCPAPEAAGGPSVFLFPPKPKDTLMISRTPEVTCVVVDVSHEDPEVKFNWYVDGVEVHNAKTKPREEQYNSTYRVVSVLTVLHQDWLNGKEYKCKVSNKALPAPIEKTISKAKGQPREPQVCTLPPSREEMTKNQVSLSCAVKGFYPSDIAVEWESNGQPENNYKTTPPVLDSDGSFFLVSKLTVDKSRWQQGNVFSCSVMHEALHNHYTQKSLSLSPGK
light: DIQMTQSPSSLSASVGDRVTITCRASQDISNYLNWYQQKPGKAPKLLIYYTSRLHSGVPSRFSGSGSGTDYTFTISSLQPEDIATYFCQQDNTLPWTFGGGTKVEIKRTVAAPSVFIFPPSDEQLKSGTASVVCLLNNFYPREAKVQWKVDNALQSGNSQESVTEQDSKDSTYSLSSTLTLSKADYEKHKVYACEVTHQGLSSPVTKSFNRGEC
heavy 2: not shown
notes: 1+2 b16 format, humanized 5T4 arm; also called b16 (42p15522)-LALA
- EC50 (read off the curve) (human CD40 on cells [1]): ~0.6 nM

B2: 2p1294 chimeric monospecific antibody (antibody, V domains shown)
VH: QVQLVESGGGLVQPGGSLRLSCAASGFSFRRYTMSWVRQAPGKGLEWVSAISDNGAITTYTESAQGRFTISRDNAKNTLYLQMNSLKPEDTAVYYCAQGGGSNYYRESWGQGTQVTVSS
notes: chimeric monospecific antibody made from the alpaca VHH
- EC50 (read off the curve) (human CD40 on cells [2]): ~0.2 nM

B3: 42p655 chimeric monospecific antibody (antibody, V domains shown)
VH: B2 VH with Q1A, S28A, A50S, S52T, A56S, T61A, Y95H
notes: as for B2
- EC50 (read off the curve) (human CD40 on cells [2]): ~0.2 nM
